Measurements: patent US20250084161A1 (BIOSCEPTRE AUST, published 2025)

Experiments:
[1] = target: T1, pDisplay-ECD2 on HEK293 cells (Homo sapiens (Human), UniProt Q99572 47-306); test: flow cytometry, live HEK293E cells expressing pDisplay-ECD2 ('HEK293E-pDisplay ED'), dAb at 5 uM, detection with anti-human IgG Fab
T1 construct: also called ECD2 as pDisplay; not shown: N-terminal HA tag of pDisplay (told for ECD1); c-Myc tag and PDGFR transmembrane anchorage of pDisplay (told for ECD1)
T1 sequence: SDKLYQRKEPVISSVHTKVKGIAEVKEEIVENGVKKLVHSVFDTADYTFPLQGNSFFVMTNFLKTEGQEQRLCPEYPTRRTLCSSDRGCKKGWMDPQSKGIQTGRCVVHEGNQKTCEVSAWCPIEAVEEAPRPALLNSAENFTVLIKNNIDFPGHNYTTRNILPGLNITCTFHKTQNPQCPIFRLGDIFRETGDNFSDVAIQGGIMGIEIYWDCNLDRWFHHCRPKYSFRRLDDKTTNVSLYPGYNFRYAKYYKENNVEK

E200 peptide [2] = target: T2, E200 peptide; test: Biacore, E200 peptide
T2 construct: Made by solid phase synthesis at Chiron Mimotopes; Which form (free, conjugated, biotinylated) was on the chip is told only for some experiments; also called peptide antigen E200; E200-biotin peptide

[3] = target: T3, ECD2, P2X7 receptor (47-306), soluble (Homo sapiens (Human), UniProt Q99572 47-306); test: Biacore against ECD2 in either solution form or as a ECD-Fc construct; Fc format; ECD2 in solution or as ECD-Fc, form not told
T3 construct: also called soluble ECD2; ECD2 domain
T3 sequence: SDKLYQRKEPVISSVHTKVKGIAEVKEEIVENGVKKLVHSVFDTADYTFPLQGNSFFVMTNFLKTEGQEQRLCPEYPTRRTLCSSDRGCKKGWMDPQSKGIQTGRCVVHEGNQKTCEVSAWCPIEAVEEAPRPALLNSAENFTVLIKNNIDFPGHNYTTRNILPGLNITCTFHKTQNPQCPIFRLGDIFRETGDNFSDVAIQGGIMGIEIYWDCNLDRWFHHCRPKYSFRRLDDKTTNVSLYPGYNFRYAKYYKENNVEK

E200 peptide [4] = target: T2, E200 peptide; test: Biacore using E200 (10RU), dAb-Fc at 100 pM to 1 nM
[5] = target: T3, ECD2, P2X7 receptor (47-306), soluble; test: Biacore against ECD2 in either solution form or as a ECD-Fc construct; Fc construct
[6] = target: T3, ECD2, P2X7 receptor (47-306), soluble; test: Biacore, dAb domain without Fc; dAb domain, no Fc format
[7] = target: T3, ECD2, P2X7 receptor (47-306), soluble; test: Biacore, labelled dAb domain at 5 and 2.5 nM; target taken as ECD2 from the sentence before; Alexa488-labelled dAb domain
[8] = target: T3, ECD2, P2X7 receptor (47-306), soluble; test: single domain format; method not given
[9] = target: T3, ECD2, P2X7 receptor (47-306), soluble; test: Biacore against ECD2 in either solution form or as a ECD-Fc construct; Fc format taken from context
E200 peptide [10] = target: T2, E200 peptide; test: Biacore using E200, dAb-Fc
[11] = target: T3, ECD2, P2X7 receptor (47-306), soluble; test: Biacore, labelled dAb domain at 10 and 5 nM; target taken as ECD2 from the paragraph before; Alexa488-labelled dAb domain, different parent

B1: 2.4 (other)
VH single domain (dAb): EVQLLESGGGLVQPGGSLRLTCAASGFSFRNHDMGWVRQAPGKGLEWVSAISGSGGSTYYADSVKGRFTISRDNSKNTLYLQMNSLRAEDTAVYYCAEPKPMDTEFDYRSPGTLVTVSS
notes: Read as PEP2-2-4, in line with '2' = PEP2-2 and '47.1' = PEP2-47-1; it is not PEP2-4; also called PEP2-2-4; PEP2-2-4 dAb
Q: Does B1 bind [1]?
A: binds

B2: 2.5 (other)
VH single domain (dAb): EVQLLESGGGLVQPGGSLRLSCAASGFTFRNHDMGWVRQAPGKGLEWVSAISGSGGSTYYADSVKGRFTISRDDSKNTLYLQMNSLRAEDTAVYYCAEPKPMDTEFDYRSPGTLVTVSS
notes: Read as PEP2-2-5; it is not PEP2-5; also called PEP2-2-5; PEP2-2-5 dAb
Q: Does B2 bind [1]?
A: binds

B3: 47.1 (other)
VH single domain (dAb): EVQLLESGGGLVQPGGSLRLSCAASGYTFPMKDMGWVRQAPGKGLEWVSAISGSGGGTYYADSVKGRFTISRDNSKNTLYLQMNSLRAEDTAVYYCAEPSHFDRPFDYRSQGTLVTVSS
notes: also called PEP2-47-1; PEP2-47-1 dAb
Q: Does B3 bind [1]?
A: binds

B4: PEP2-2-3 dAb (other)
VH: EVQLLESGGGLVQPGGSLRLSCAASGFTFRNHDMGWVRQAPGKGLEWVSAISGSGGSTYYADSVKGRFTISRDNSKNTLYLQMNSLRAEDTAVYYCAEPKPMDTEFDYWSPGTLVTVSS
notes: Human VH dAb, unformatted; also called unformatted dAb PEP2-2-3
Q: B4 was tested. Which Kd (E200 peptide [2]) did it give?
A: 7 nM

B5: 42.2 (other)
VH single domain (dAb): EVQMLESGGGLVQPGESLRLSCAASGFTFDNVEMSWVRQAPGKGLEWVSSIGSKGEYTYYADSVKGRFTISRDNSKNTLYLQMNSPRAEDTAVYYCAQTVNVPEPAFAYWGQGTLVTVSS
notes: also called PEP2-42-2; PEP2-42-2 dAb
Q: Does B5 bind [1]?
A: binds

B6: PEP2-2-3 Fc (Fc fusion)
chain: EVQLLESGGGLVQPGGSLRLSCAASGFTFRNHDMGWVRQAPGKGLEWVSAISGSGGSTYYADSVKGRFTISRDNSKNTLYLQMNSLRAEDTAVYYCAEPKPMDTEFDYWSPGTLVTVSS
notes: Standard format dAb-Fc with human type IgG1 Fc subtype; also called 2-2-3 (PEP-Fc); not shown: human IgG1 Fc
Q: With B6 as the binder, how does the Kd [3] read?
A: 1.5 nM

Q: And the Kd (E200 peptide [4])?
A: 0.13 nM

B7: PEP2-2-1 Fc (Fc fusion)
chain: EVQLLESGGGLVQPGGSLRLSCAASGFTFRNHDMGWVRQAPGKGLEWVSAISGSGGSTYYANSVKGRFTISRDNSKNTLYLQMNSLRAEDTAVYYCAEPKPMDTEFDYRSPGTLVTVSS
notes: Standard format dAb-Fc with human type IgG1 Fc subtype; also called PEP2-2-1 dAb-FC; not shown: human IgG1 Fc
Q: For B7, which Kd [5] is on record?
A: 0.56 nM

B8: PEP2-2-12 dAb domain (other)
VH: EVQLLESGGGLVQPGGSLRLSCAASGFTFRNHDMGWVRQAPGKGLEWVSAISGSGGSTYYANSVKGRFTISRDNSKNTLYLQMNSLRAEDTAVYYCAEPKPMDTEFDYPSPGTLVTVSS
notes: Human VH dAb domain, no Fc format
Q: With B8 as the binder, how does the Kd [6] read?
A: 0.945 nM

B9: PEP2-2-12Alexa488 domain (other)
VH: EVQLLESGGGLVQPGGSLRLSCAASGFTFRNHDMGWVRQAPGKGLEWVSAISGSGGSTYYANSVKGRFTISRDNSKNTLYLQMNSLRAEDTAVYYCAEPKPMDTEFDYPSPGTLVTVSS
modifications: Alexa488 label attached (site not stated)
notes: Human VH dAb domain, labelled; also called PEP2-2-12 with Alexa488 label
Q: How did the Kd [7] turn out when B9 was run?
A: 0.174 nM

B10: PEP2-47 dAb (other)
VH: EVQLLESGGGLVQPGGSLRLSCAASGFTFPMKDMGWVRQAPGKGLEWVSAISGSGGSTYYADSVKGRFTISRDNSKNTLYLQMNSLRAEDTAVYYCAEPSHFDRPFDYWGQGTLVTVSS
notes: Human VH dAb, unformatted
Q: Does B10 bind [8]?
A: binds

B11: PEP2-472-1 Fc (Fc fusion)
chain: EVQLLESGGGLVQPGGSLRLSCAASGYTFPMKDMGWVRQAPGKGLEWVSAISGSGGGTYYADSVKGRFTISRDNSKNTLYLQMNSLRAEDTAVYYCAEPKPMDTEFDYRSQGTLVTVSS
notes: Standard format dAb-Fc with human type IgG1 Fc subtype; also called 2-47-1/2-2-2 CDR crossover; not shown: human IgG1 Fc
Q: Which Kd [9] does the source give for B11 here?
A: 0.584 nM

Q: And the Kd (E200 peptide [10])?
A: 0.09 nM

B12: PEP2-472-12Alexa488 domain (other)
VH: EVQLLESGGGLVQPGGSLRLSCAASGYTFPMKDMGWVRQAPGKGLEWVSAISGSGGGTYYADSVKGRFTISRDNSKNTLYLQMNSLRAEDTAVYYCAEPKPMDTEFDYRSPGTLVTVSS
modifications: Alexa488 label attached (site not stated)
notes: Human VH dAb domain, labelled
Q: For B12, which Kd [11] is on record?
A: 0.156 nM

B13: PEP2-2-2 Fc (Fc fusion)
chain: EVQLLESGGGLVQPGGSLRLSCAASGFTFRNHDMGWVRQAPGKGLEWVSAISGSGGSTYYADSVKGRFTISRDNSKNTLYLQMNSLRAEDTAVYYCAEPKPMDTEFDYRSQGTLVTVSS
notes: Standard format dAb-Fc with human type IgG1 Fc subtype; also called 2-2-2 (PEP-Fc); not shown: human IgG1 Fc
Q: B13 was tested. Which Kd (E200 peptide [10]) did it give?
A: 0.1 nM

B14: PEP2-2-1-1 Fc (Fc fusion)
chain: EVQLLESGGGLVQPGGSLRLSCAASGFTFRNHDMGWVRQAPGKGLEWVSAISGSGGSTYYADSVKGRFTISRDNSKNTLYLQMNSLRAEDTAVYYCAEPKPMDTEFDYRSPGTLVTVSS
notes: Standard format dAb-Fc with human type IgG1 Fc subtype; also called 2-2-1-1 (PEP-Fc); not shown: human IgG1 Fc
Q: With B14 as the binder, how does the Kd (E200 peptide [10]) read?
A: 0.09 nM

B15: PEP2-42 Fc (Fc fusion)
chain: EVQLLESGGGLVQPGGSLRLSCAASGFTFDNVEMSWVRQAPGKGLEWVSSIGSKGEDTYYADSVKGRFTISRDNSKNTLYLQMNSLRAEDTAVYYCAQTVNVPEPAFAYWGQGTLVTVSS
notes: Standard format dAb-Fc with human type IgG1 Fc subtype; also called 2-42 (PEP-Fc); not shown: human IgG1 Fc
Q: For B15, which Kd (E200 peptide [10]) is on record?
A: 5.5 nM

B16: PEP2-47 Fc (Fc fusion)
chain: EVQLLESGGGLVQPGGSLRLSCAASGFTFPMKDMGWVRQAPGKGLEWVSAISGSGGSTYYADSVKGRFTISRDNSKNTLYLQMNSLRAEDTAVYYCAEPSHFDRPFDYWGQGTLVTVSS
notes: Standard format dAb-Fc with human type IgG1 Fc subtype; also called 2-47 (PEP-Fc); not shown: human IgG1 Fc
Q: With B16 as the binder, how does the Kd (E200 peptide [10]) read?
A: 7.5 nM

B17: PEP2-47-1 Fc (Fc fusion)
chain: EVQLLESGGGLVQPGGSLRLSCAASGYTFPMKDMGWVRQAPGKGLEWVSAISGSGGGTYYADSVKGRFTISRDNSKNTLYLQMNSLRAEDTAVYYCAEPSHFDRPFDYRSQGTLVTVSS
notes: Standard format dAb-Fc with human type IgG1 Fc subtype; also called 2-47-1 (PEP-Fc); not shown: human IgG1 Fc
Q: Which Kd (E200 peptide [10]) does the source give for B17 here?
A: 0.11 nM

B18: PEP2-247-1 Fc (Fc fusion)
chain: EVQLLESGGGLVQPGGSLRLSCAASGFTFRNHDMGWVRQAPGKGLEWVSAISGSGGGTYYADSVKGRFTISRDNSKNTLYLQMNSLRAEDTAVYYCAEPSHFDRPFDYRSQGTLVTVSS
notes: Standard format dAb-Fc with human type IgG1 Fc subtype; also called 2-247-1 (PEP-Fc); 2-2/2-47-1 CDR crossover; not shown: human IgG1 Fc
Q: B18 was tested. Which Kd (E200 peptide [10]) did it give?
A: 0.19 nM

B19: PEP2-247-2 Fc (Fc fusion)
chain: EVQLLESGGGLVQPGGSLRLSCAASGFTFRNHDMGWVRQAPGKGLEWVSAISGSGGSTYYANSVKGRFTISRDNSKNTLYLQMNSLRAEDTAVYYCAEPSHFDRPFDYRSQGTLVTVSS
notes: Standard format dAb-Fc with human type IgG1 Fc subtype; also called 2-247-2 (PEP-Fc); 2-2-1/2-47-1 CDR crossover; not shown: human IgG1 Fc
Q: With B19 as the binder, how does the Kd (E200 peptide [10]) read?
A: 0.45 nM
